Test results: US9803013B2, “Biological materials and uses thereof” (BioInvent International AB, priority 2005, dated 2017)

Key:
RL [1] = assay: Apoptosis induction by cross-linked IgG (Annexin V/PI); type: cell-based, human; details: viable cells after 6 hour incubation, crosslinked, compared to control FITC-8 IgG1
Procedure: (§1) 2×10^5 B lymphoma cells (Raji or Ramos) or Jurkat T cells were incubated with serially diluted and detoxified scFv's in culture medium for 1 h on ice.
(§2) When whole IgGs were used for apoptosis induction, cross-linking reagent was replaced by goat Fab′2 anti-human Fc γ antibody (Jackson ImmunoResearch) with minimal cross-reactivity with non-IgG antibody isotypes (to avoid unspecific cross-linking of endogenous B lymphoma associated surface immunoglobulins) and incubated, as described above, for 6 h.
(§3) Apoptotic cells were, unless otherwise stated, detected by combined staining with Annexin V Alexa Fluor 488 (AV) and Propidium Iodide (PI) (both from Molecular Probes, Invitrogen) and subsequent flow-cytometric analysis, Cells were defined as viable (AV−/PI−), early apoptotic (AV+/PI−) or late apoptotic/necrotic (AV+/PI+). AV and PI signals were recorded in the FL1 and FL2 or FL3 channels (as indicated in the text), respectively, using a FACSCalibur instrument (BD Biosciences).
(§4) • ^aApoptosis Induction; determined by percentage of viable cells after 6 hour incubation with any of the human antibodies, crosslinked with Goat anti-Human (gamma) Fc specific antibody; −, viability not affected; +, 95-80%; ++, 79-60%; +++, 59-40% viable cells compared to control (human FITC-8 IgG1). […] The cell line dependent MFI value of control human FITC-8 IgG antibody was subtracted from the MFI of each human antibody.

WSU-NHL [2] = assay: as above; type: cell-based, human; details: viable cells after 6 hour incubation, crosslinked, compared to control FITC-8 IgG1
Procedure: as §1, §2, §3, §4

Granta 519 [3] = assay: as above; type: cell-based, human; details: viable cells after 6 hour incubation, crosslinked, compared to control FITC-8 IgG1
Procedure: as §1, §2, §3, §4

MC/CAR [4] = assay: as above; type: cell-based, human; details: viable cells after 6 hour incubation, crosslinked, compared to control FITC-8 IgG1
Procedure: as §1, §2, §3, §4

DOHH-2 [5] = assay: as above; type: cell-based, human; details: viable cells after 6 hour incubation, crosslinked, compared to control FITC-8 IgG1
Procedure: as §1, §2, §3, §4

CL-01 [6] = assay: as above; type: cell-based, human; details: viable cells after 6 hour incubation, crosslinked, compared to control FITC-8 IgG1
Procedure: as §1, §2, §3, §4

SC-1 [7] = assay: as above; type: cell-based, human; details: viable cells after 6 hour incubation, crosslinked, compared to control FITC-8 IgG1
Procedure: as §1, §2, §3, §4

NCEB-1 [8] = assay: as above; type: cell-based, human; details: viable cells after 6 hour incubation, crosslinked, compared to control FITC-8 IgG1
Procedure: as §1, §2, §3, §4

Rec-1 [9] = assay: as above; type: cell-based, human; details: viable cells after 6 hour incubation, crosslinked, compared to control FITC-8 IgG1
Procedure: as §1, §2, §3, §4

SP-53 [10] = assay: as above; type: cell-based, human; details: viable cells after 6 hour incubation, crosslinked, compared to control FITC-8 IgG1
Procedure: as §1, §2, §3, §4

BJAB [11] = assay: as above; type: cell-based, human; details: viable cells after 6 hour incubation, crosslinked, compared to control FITC-8 IgG1
Procedure: as §1, §2, §3, §4

Jeko-1 [12] = assay: as above; type: cell-based, human; details: viable cells after 6 hour incubation, crosslinked, compared to control FITC-8 IgG1
Procedure: as §1, §2, §3, §4

Reh/KM-3 [13] = assay: as above; type: cell-based, human; details: viable cells after 6 hour incubation, crosslinked, compared to control FITC-8 IgG1
Procedure: as §1, §2, §3, §4

JVM-2 [14] = assay: as above; type: cell-based, human; details: viable cells after 6 hour incubation, crosslinked, compared to control FITC-8 IgG1
Procedure: as §1, §2, §3, §4

MC/CAR [15] = assay: IgG binding to multiple myeloma cell line, flow cytometry MFI; design: species or system human; details: control FITC-8 IgG MFI subtracted
Procedure: as §4

Reh/KM-3 [16] = assay: IgG binding to pre B cell leukaemia cell line, flow cytometry MFI; design: species or system human; details: Reh/KM-3, pre B cell Leukaemia; control FITC-8 IgG MFI subtracted
Procedure: as §4

RL [17] = assay: IgG binding to B lymphoma cell line, flow cytometry MFI; design: species or system human; details: Follicular Lymphoma, control FITC-8 IgG MFI subtracted
Procedure: as §4

Raji = assay: as above; design: species or system human; details: Burkitt's Lymphoma, control FITC-8 IgG MFI subtracted
Procedure: as §4

WSU-NHL [18] = assay: as above; design: species or system human; details: Follicular Lymphoma, control FITC-8 IgG MFI subtracted
Procedure: as §4

Granta 519 [19] = assay: as above; design: species or system human; details: Granta 519, Mantle cell Lymphoma; control FITC-8 IgG MFI subtracted
Procedure: as §4

DOHH-2 [20] = assay: as above; design: species or system human; details: DOHH-2, Follicular Lymphoma; control FITC-8 IgG MFI subtracted
Procedure: as §4

CL-01 [21] = assay: as above; design: species or system human; details: CL-01, Burkitt's Lymphoma; control FITC-8 IgG MFI subtracted
Procedure: as §4

Daudi = assay: as above; design: species or system human; details: Burkitt's Lymphoma, control FITC-8 IgG MFI subtracted
Procedure: as §4

SC-1 [22] = assay: as above; design: species or system human; details: SC-1, Follicular Lymphoma; control FITC-8 IgG MFI subtracted
Procedure: as §4

NCEB-1 [23] = assay: as above; design: species or system human; details: NCEB-1, Mantle cell Lymphoma; control FITC-8 IgG MFI subtracted
Procedure: as §4

Rec-1 [24] = assay: as above; design: species or system human; details: Rec-1, Mantle cell Lymphoma; control FITC-8 IgG MFI subtracted
Procedure: as §4

SP-53 [25] = assay: as above; design: species or system human; details: SP-53, Mantle cell Lymphoma; control FITC-8 IgG MFI subtracted
Procedure: as §4

BJAB [26] = assay: as above; design: species or system human; details: Burkitt's Lymphoma, control FITC-8 IgG MFI subtracted
Procedure: as §4

Ramos = assay: as above; design: species or system human; details: Burkitt's Lymphoma, control FITC-8 IgG MFI subtracted
Procedure: as §4

Jeko-1 [27] = assay: as above; design: species or system human; details: Jeko-1, Mantle cell Lymphoma; control FITC-8 IgG MFI subtracted
Procedure: as §4

JVM-2 [28] = assay: as above; design: species or system human; details: JVM-2, Mantle cell Lymphoma; control FITC-8 IgG MFI subtracted
Procedure: as §4

Row | Molecule | Apoptosis Induction (RL [1]) | Apoptosis Induction (WSU-NHL [2]) | Apoptosis Induction (Granta 519 [3]) | Apoptosis Induction (MC/CAR [4]) | Apoptosis Induction (DOHH-2 [5]) | Apoptosis Induction (CL-01 [6]) | Apoptosis Induction (SC-1 [7]) | Apoptosis Induction (NCEB-1 [8]) | Apoptosis Induction (Rec-1 [9]) | Apoptosis Induction (SP-53 [10]) | Apoptosis Induction (BJAB [11]) | Apoptosis Induction (Jeko-1 [12]) | Apoptosis Induction (Reh/KM-3 [13]) | Apoptosis Induction (JVM-2 [14]) | MFI (MC/CAR [15]) | MFI (Reh/KM-3 [16]) | MFI (RL [17]) | MFI (Raji) | MFI (WSU-NHL [18]) | MFI (Granta 519 [19]) | further results
1 | C11: fully human IgG1 antibody specific for surface IgM; VH and VL sequences of FIG. 11 (SEQ ID NOs. 10 and 12) (antibody, listed as Homo sapiens, V domains shown) VH: EVQLLESGGGLVQPGGSLRLSCAASGFTFGSYEMNWVRQAPGKGLEWVSVIYSGGSTYYADSVEGRFTISRDNSKNTLYLQMNSLRAEDTAVYYCARDTNPYYYYGMDVWGQGTLVTVSS VL: QSVLTQPPSASGTPGQRVTISCSGSSSNIGNNAVNWYQQLPGTAPKLLIYRNNQRPSGVPDRFSGSKSGTSASLAISGLRSEDEADYYCQSYDSSLNGQVFGGGTKLTVLG | − | − | + (95-80%) | − | − | + (95-80%) | − | − | − | − | + (95-80%) | ++ (79-60%) | − | − | 0 | 0 | 210 | 20 | 60 | 60 | MFI (DOHH-2 [20]): 90; MFI (CL-01 [21]): 60; MFI (Daudi): 450; MFI (SC-1 [22]): 50; MFI (NCEB-1 [23]): 10; MFI (Rec-1 [24]): 900; MFI (SP-53 [25]): 360; MFI (BJAB [26]): 510; MFI (Ramos): 240; MFI (Jeko-1 [27]): 1040; MFI (JVM-2 [28]): 10
2 | B11: fully human IgG1 antibody specific for ICAM-1; VH and VL sequences of FIG. 10 (SEQ ID NOs. 6 and 8) (antibody, listed as Homo sapiens, V domains shown) VH: EVQLLESGGGLVQPGGSLRLSCAASGFTFSNAWMSWVRQAPGKGLEWVAFIWYDGSNKYYADSVKGRFTISRDNSKNTLYLQMNSLRAEDTAVYYCARYSGWYFDYWGQGTLVTVSS VL: QSVLTQPPSASGTPGQRVTISCTGSSSNIGAGYDVHWYQQLPGTAPKLLIYDNNNRPSGVPDRFSGSKSGTSASLAISGLRSEDEADYYCQSYDSSLSAWLFGGGTKLTVLG | − | − | + (95-80%) | + (95-80%) | − | ++ (79-60%) | − | + (95-80%) | − | − | + (95-80%) | + (95-80%) | − | − | 120 | 20 | 100 | 420 | 0 | 260 | MFI (DOHH-2 [20]): 100; MFI (CL-01 [21]): 600; MFI (Daudi): 150; MFI (SC-1 [22]): 0; MFI (NCEB-1 [23]): 340; MFI (Rec-1 [24]): 380; MFI (SP-53 [25]): 90; MFI (BJAB [26]): 310; MFI (Ramos): 100; MFI (Jeko-1 [27]): 30; MFI (JVM-2 [28]): 100
